Consider one molecule from doi:10.1101/2021.12.14.472590 (bioRxiv, 2021).

The target in the assay is human β-actin (recombinant G-actin) (human, UniProt P60709 1-375). The experiment in a line: NMR titration.

B1: ADAP1-381 (N-terminal intrinsically disordered fragment of ADAP) (domain or fragment)
chain: MAKYNTGGNPTEDVSVNSRPFRVTGPNSSSGIQARKNLFNNQGNASPPAGPSNVPKFGSPKPPVAVKPSSEEKPDKEPKPPFLKPTGAGQRFGTPASLTTRDPEAKVGFLKPVGPKPINLPKEDSKPTFPWPPGNKPSLHSVNQDHDLKPLGPKSGPTPPTSENEQKQAFPKLTGVKGKFMSASQDLEPKPLFPKPAFGQKPPLSTENSHEDESPMKNVSSSKGSPAPLGVRSKSGPLKPAREDSENKDHAGEISSLPFPGVVLKPAASRGGPGLSKNGEEKKEDRKIDAAKNTFQSKINQEELASGTPPARFPKAPSKLTVGGPWGQSQEKEKGDKNSATPKQKPLPPLFTLGPPPPKPNRPPNVDLTKFHKTSSGNSTS
In the case of B1, the binding result is listed as “binds”.
